Data taken from PMC5110521, “EstDZ3: A New Esterolytic Enzyme Exhibiting Remarkable Thermostability” (Frontiers in Microbiology, 2016).

Key:
Experiment in all cases: purified protein
Assay type in all cases: biochemical, Dictyoglomus thermophilum
Conditions in all cases: 25 mM Tris-HCl pH 8, 0.05% Triton X-100, 75°C (standard reaction), substrate 0.1 to 1 mM
purified protein [1] = substrate: CC(=O)Oc1ccc([N+](=O)[O-])cc1
purified protein [2] = substrate: CCCCCCCCCC(=O)Oc1ccc([N+](=O)[O-])cc1
purified protein [3] = substrate: CCCCCCCC(=O)Oc1ccc([N+](=O)[O-])cc1
purified protein [4] = substrate: CCCC(=O)Oc1ccc([N+](=O)[O-])cc1
purified protein [5] = substrate: CCCCCCCCCCCC(=O)Oc1ccc([N+](=O)[O-])cc1

B1: EstDZ3 (Dictyoglomus thermophilum) (protein)
chain: MTENREPVVLKNQGQKIFGVIHIPEKTPAPFVLFCHGFTGTKIEPHRIFVKTAEALAKEGIGALRIDFRGSGDSEGSFKDMTVEGEVSDAMVAIEYLSQNNLVDKEKIGILGLSMGGAVASITSGRNPLIKSCVLWSAVCHFDIFFNRSPEEVSRIKDYGDFIDLGGNPVGKKFLSEIVNIKPLEEIKKRSIPVLIIHGSGDMVVPIQHAYDYFNGLKDTHKVKLEIIEGADHTFNSIEWEEKVIEKTVNWFKETL
notes: full-length ORF, 256 residues (modelled 1 to 256), no signal peptide; pLATE52 poly-histidine tag kept; E. coli BL21(DE3); heat treatment and Ni-NTA; forward primer encodes MTENREP
- Km (purified protein [1]): 300 ± 70 µM
- Vmax (purified protein [1]): 355 µmol/min/mg
- kcat (purified protein [1]): 740 s⁻¹
- kcat/Km (purified protein [1]): 2.43e+06 M⁻¹ s⁻¹
- Km (purified protein [2]): 170 ± 10 µM
- Vmax (purified protein [2]): 387 µmol/min/mg
- kcat (purified protein [2]): 80 s⁻¹
- kcat/Km (purified protein [2]): 471000 M⁻¹ s⁻¹
- Km (purified protein [3]): 190 ± 10 µM
- Vmax (purified protein [3]): 501 µmol/min/mg
- kcat (purified protein [3]): 104 s⁻¹
- kcat/Km (purified protein [3]): 557000 M⁻¹ s⁻¹
- Km (purified protein [4]): 150 ± 20 µM
- Vmax (purified protein [4]): 906 µmol/min/mg
- kcat (purified protein [4]): 1890 s⁻¹
- kcat/Km (purified protein [4]): 1.25e+07 M⁻¹ s⁻¹
- Km (purified protein [5]): 610 ± 140 µM
- Vmax (purified protein [5]): 357 µmol/min/mg
- kcat (purified protein [5]): 743 s⁻¹
- kcat/Km (purified protein [5]): 1.27e+06 M⁻¹ s⁻¹
